Values quoted from earlier work as cited in US9506909B2, “Homoarginine as a biomarker for the risk of mortality” (Synlab Medizinisches Versorgungszentrum Heidelberg GmbH, priority 2010, dated 2016).

B1: NTproBNP: N-terminal pro peptide of proBNP, 76 amino acids, inactive counterpart of BNP (protein, UniProt P16860 27-102, looked up)
NT-proBNP: HPLGSPGSASDLETSGLQEQRNHLQGKLSELQVEQTSLEPLQESPRPTGVWKSREVATEGIRGHRKMVLYTLRAPR
modifications: NT-proBNP

Columns and labels:
[1] = storage for 48 hours at room temperature or at 40 Celsius

Molecule | in-vivo half-life (in vivo) | concentration loss on storage [1] | in-vivo half-life, longer than that of BNP (printed as the difference to the half-life of BNP)
BNP: active natriuretic hormone, 32 amino acids, cleaved from proBNP | 0.333 h | at least 20% | 
B1 |  |  | 2 h
